Test: soluble on expression in E. coli; label from the status in PepcDB or PDB records

Row | Sequence | soluble on expression in E. coli
1 | SNAMSTHVTFDYSKALSFIGEHEITYLRDAVKVTHHAIHEKTGAGNDFLGWVDLPLQYDKEEFARIQKCAEKIKNDSDILLVVGIGGSYLGARAAIEMLNHSFYNTLSKEQRKTPQVLFVGQNISSTYMKDLMDVLEGKDFSINVISKSGTTTEPALAFRIFRKLLEEKYGKEEARKRIYATTDKARGALKTLADNEGYETFVIPDDVGGRFSVLTPVGLLPIAVSGLNIEEMMKGAAAGRDDFGTSELEENPAYQYAVVRNALYNKGKTIEMLINYEPALQYFAEWWKQLFGESEGKDQKGIFPSSANFSTDLHSLGQYVQEGRRDLFETVLKVGKSTHELTIESEENDLDGLNYLAGETVDFVNTKAYEGTLLAHSDGGVPNLIVNIPELNEYTFGYLVYFFEKACAMSGYLLGVNPFDQPGVEAYKKNMFALLGKPGFEELKAELEERLK | soluble
2 | SPCDTNWRYYGDSCYGFFRHNLTWEESKQYCTDMNATLLKIDNRNIVEYIKARTHLIRWVGLSRQKSNEVWKWEDGSVISENMFEFLEDGKGNMNCAYFHNGKMHPTFCENKHYLMCERKAG | soluble
3 | SPLHVSLANGNRDLDYDSVQPYFMCDDEEEDVHHQQPPQPPAPSEDIWKKFELLPTPRPSPGHAGLYSPPCEAVAVSFAPRDHDGDSFSIADLPELPGGDAVKQSFVCDPDDETFVKNIILQDCMWNGFSASAKLVSKLDPYQAVRKEGTGVSLAADVEPATPPDCTCNT | soluble
4 | SPPIGNQLGALVHQRTVITEEFKVPDKMVGFIIGRGGEQISRIQAESGCKIQIASESSGIPERPCVLTGTPESIEQAKRLLGQIVDRCRNGPGFHNDIDSNSTIQEILIPASKVGLVIGRGGETIKQLQERTGVKMVMIQDGPLPTGADKPLRITGDAFKVQQAREMVLEIIREKDQADFRGVRGDFNSRMGGGSIEVSVPRFAVGIVIGRNGEMIKKIQNDAGVRIQFKPDDGISPEYYRQQVAFYGQTLGQAQAHSQEQ | soluble
5 | SPPNLTPAQSNRVCNSLALLQCVASHSDTRMLFLKAHIPLYLYPFLNTTSKSRPFEYLRLTSLGVIGALVKVDDTEVISFLLSTEIIPLCLRTMEMGSELSKTVATFIVQKILLDDVGMDYICTTAERFFAVGRVLGNMVQSLVEQPSPRLLKHIIRCYLRLSDNPRACAALASCLPDSLRDGSFSNCLREDPTARRWLQQLVHNVGVGRVPTHQGGGFEHML | not soluble
6 | SPSETLWEIAKAEVEKRGINGSEGDGAEIAEKFVFFIGSKNGGKTTIILRCLDRDEPPKPTLALEYTYGRRAKGHNTPKDIAHFWELGGGTSLLDLISIPITGDTLRTFSLVLVLDLSKPNDLWPTMENLLQATKSHVDKVIMKLGKTNAKAVSEMRQKIWNNMPKDHPQDHELIDPFPVPLVIIGSKYDVFQDFESEKRKVICKTLRFVAHYYGASLMFTSKSEALLLKIRGVINQLAFGIDKSKSICVDQNKPLFITAGLDSFGQIGSPPVPENDIGKLHAHSPMELWKKVYEKLFPPKSINTLKDIKDPARDPQYAENEVDEMRIQKDLELEQYKRSSSKSWKQIELDS | soluble
7 | SPYVFSFKMPQEQGQMFQYYPVYMVLPWEQPQQTVPRSPQQTRQQQYEEQIPFYAQFGYIPQLAEPAISGGQQQLAFDPQLGTAPEIAVMSTGEEIPYLQKEAINFRHDSAGVFMPSTSPKPSTTNVFTSAVDQTITPELPEEKDKTDSLREP | soluble
8 | SQDPSGDKVCRAGGEEDGEDGQHTSRVHDTEADPHHTEASSHRTEGSSHLTETSSRPSEAENGHDNSPHVNRAQDVGTQASPQGSLNSRVPVEARVVVEEAAIAPQGEQAPIIPGPSGDAATTAGSRLLEFSVTVPFRTAVEANIACRTLASNIQQQQVMVQQEFTVNDTILTVRWTTEDPVLFRTSINAFLDQLSLVVRNIPRPVFMAVFKQGRGRNN | soluble
9 | SQEIVAGELERCFLAMPESVLPIVTMEERNDLCRRAGHLSGFTHTASLESSLGGTVTFLLNRNFIRIQTSTVGEVFMRILPFSDSSSVICVVTTVLHPVADSRIDFYTTEWKPLKTDRFWQQPRIEDFFLPHTDRQSYAYQAIYASLTPSYMQVSLSEESDTLSIRQTVTETLAEEEKPLAAIFLSPEPLVYRWQSGRFVRQVR | soluble
10 | SQTLRIGYVSSLLYGLLPEIIYLFRQQNPEIHIELIECGTKDQINALKQGKIDLGFGRLKITDPAIRHIVLHKEQLKLAIHKHHHLNQFAATGVHLSQIIDEPMLLYPVSQKPNFATFIQSLFTELGLVPSKLTEIREIQLALGLVAAGEGVCIVPASAMDIGVKNLLYIPILDDDAYSPISLAVRNMDHSNYIPKILACVQEVFATHHIRPLIESILEHHHHHH | soluble
11 | SRTVIPGAVKYTLVYDNGSSQAVIATAPEITPTELEATLRQAASHLYSYGRLGSRGNNQLTIRARTIIHAEPGVSVPVYLGKVQRTLTTREDPEMAVEVYLDKFAQLSKPTA | not soluble
12 | SSASDGFKANLVFKEIEKKLEEEGEQFVKKIGGIFAFKVKDGPGGKEATWVVDVKNGKGSVLPNSDKKADCTITMADSDFLALMTGKMNPQSAFFQGKLKITGNMGLAMKLQNLQLQPGNAKL | soluble
13 | SSESESGGDFHEMREPRIEKVVVHMGIGHGGRDLANAEDILGEITGQMPVRTKAKRTVGEFDIREGDPIGAKVTLRDEMAEEFLQTALPLAELATSQFDDTGNFSFGVEEHTEFPSQEYDPSIGIYGLDVTVNLVRPGYRVAKRDKASRSIPTKHRLNPADAVAFIESTYDVEVSE | soluble
14 | SSGHKCYPWDLQDRYAQDKSVVNKMQQKYWETKQAFIKATGKKEDEHVVASDADLDAKLELFHSIQRTCLDLSKAIVLYQKRICFLSQEENELGKFLRSQGFQDKTRAGKMMQATGKALCFSSQQRLALRNPLCRFHQEVETFRHRAISDTWLTVNRMEQCRTEYRGALLWMKDVSQELDPDLYKQMEKFRKVQTQVRLAKKNFDKLKMDVCQKVDLLGASRCNLLSHMLATYQTTLLHFWEKTSHTMAAIHESFKGYQPYEFTTLKSLQDPMKKLVEKEEKKKINQQESTDAAVQEPSQLISLEEENQRKESSSFKTEDGKSILSALDKGSTHTACSGPIDELLDMKSEEGACLGPVAGTPEPEGADKDDLLLLSEIFNASSLEEGEFSKEWAAVFGDGQVKEPVPTMALGEPDPKAQTGSGFLPSQLLDQNMKDLQASLQEPAKAASDLTAWFSLFADLDPLSNPDAVGKTDKEHELLNA | soluble
15 | SSGLSFSEMEGCRNLLGLLDNDEIMALCDTVTNRLVQPQDRQDAVHAILAYSQSAEELLRRRKVHREVIFKYLATQGIVIPPATEKHNLIQHAKDYWQKQPQLKLKETPEPVTKTEDIHLFQQQVKEDKKAEKVDFRRLGEEFCHWFFGLLNSQNPFLGPPQDEWGPQHFWHDVKLRFYYNTSEQNVMDYHGAEIVSLRLLSLVKEEFLFLSPNLDSHGLKCASSPHGLVMVGVAGTVHRGNTCLGIFEQIFGLIRCPFVENTWKIKFINLKIMGESSLAPGTLPKPSVKFEQSDLEAFYNVITVCGTNEVRHNVKQASDSGTGDQV | soluble
16 | SSKKYKLSEIHHLHPEYVRVSEHFKASMKNFKIEKIKKIENSELLDKFTWKKSQMKEEGKLLFYATSRAYVESICSNNFDSFLHETHENKYGKGIYFAKDAIYSHKNCPYDAKNVVMFVAQVLVGKFIEGNITYTSPPPQFDSCVDTRSNPSVFVIFQKDQVYPQYVIEYTED | soluble
17 | SSNNFNYGAYHSLEAIYHEMDNIAADFPDLARRVKIGHSFENRPMYVLKFSTGKGVRRPAVWLNAGIHSREWISQATAIWTARKIVSDYQRDPAITSILEKMDIFLLPVANPDGYVYTQTQNRLWRKTRSRNPGSSCIGADPNRNWNASFAGKGASDNPCSEVYHGPHANSEVEVKSVVDFIQKHGNFKGFIDLHSYSQLLMYPYGYSVKKAPDAEELDKVARLAAKALASVSGTEYQVGPTCTTVYPASGSSIDWAYDNGIKFAFTFELRDTGTYGFLLPANQIIPTAEETWLGLKTIMEHVRDNLY | soluble
18 | STAGKVIKCKAAVLWELKKPFSIEEVEVAPPKAHEVRIKMVAAGICRSDEHVVSGNLVTPLPVILGHEAAGIVESVGEGVTTVKPGDKVIPLFTPQCGKCRICKNPESNYCLKNDLGNPRGTLQDGTRRFTCSGKPIHHFVGVSTFSQYTVVDENAVAKIDAASPLEKVCLIGCGFSTGYGSAVKVAKVTPGSTCAVFGLGGVGLSVVMGCKAAGAARIIAVDINKDKFAKAKELGATECINPQDYKKPIQEVLKEMTDGGVDFSFEVIGQLDTMMASLLCCHEACGTSVIVGVPPDSQNLSINPMLLLTGRTWKGAIFGGFKSKESVPKLVADFMAKKFSLDALITNVLPFEKINEGFDLLRSGKSIRTVLTF | soluble
19 | STFVAKDGTQIYFKDWGSGKPVLFSHGWLLDADMWEYQMEYLSSRGYRTIAFDRRGFGRSDQPWTGNDYDTFADDIAQLIEHLDLKEVTLVGFSMGGGDVARYIARHGSARVAGLVLLGAVTPLFGQKPDYPQGVPLDVFARFKTELLKDRAQFISDFNAPFYGINKGQVVSQGVQTQTLQIALLASLKATVDCVTAFAETDFRPDMAKIDVPTLVIHGDGDQIVPFETTGKVAAELIKGAELKVYKDAPHGFAVTHAQQLNEDLLAFLKRGSHHHHHH | soluble
20 | STLYEKLGGTTAVDLAVDKFYERVLQDDRIKHFFADVDMAKQRAHQKAFLTYAFGGTDKYDGRYMREAHKELVENHGLNGEHFDAVAEDLLATLKEMGVPEDLIAEVAAVAGAPAHKRDVLNQ | soluble
21 | STMLRVRSRDGLERVSVDGPHITVSQLKTLIQDQLQIPIHNQTLSTNRNLLLAKSPSDFLAFTDMADPNLRISSLNLAHGSMVYLAYEGERTIRGGPAVTPAGSFGRKMTVEDLIARQMRVGRQEKAHCDSVSFDRDCANAFQHFVNESLAFAVKRGGFMYGNVSEDGQVEVNFIYEPPQQGMEDNLILMRDSEEEKRVDAIALGLGMRRVGFIFNQTVTQDKKEYTLSNVEVLLAAQLHAESELKEWVTAVVKLEINEDGGADVHFEPFQMSDMCVRLFKEGWFETEIGPEDDPKLSKLKKEVVVGVKDVKEVDNDFFLVLVKILDHQGPLSCTFPIENRNTQTTMRALKTHMERARSLPFVKRISDFHLLLFVAQFLDVSSDVPALAECVRLQSHVPEGYELLIDSMANTS | soluble
22 | STNVFIMGHVNPDIDCIGGAIGLYSVLSSKVDGDVHIVLDDTSSSVEGIVNRLVENYDEYKNVFMRSSDCIELIDQGSILILDDVNSRNYVLSEKILEEISKVVVIDHHRRAANYIKDTILSYIESYASSTSELVTEMIQYMDENHKLKPIEAEALLAGIVVDTKNFSFKTGVRTFEAAAFLRKNGADTIEIKKLFSNDL | not soluble
23 | STREHPPEPLDFFIWTVEDVGSWLEEINLGGYRQIFKENGVNGEYLESMSVFTTEQILHFIRRHHMKWGDFITLCKELRRIKVACLKGEQRVRRPWWAPSCLSVVFVKAAKRNRQSRVVSLKLES | soluble
24 | STSAAQQGRNQNGEYNILDSIIAETRLSPDDEAYDIAKRGVSAFIEELLKPQNDGEPVKKAMVDRMIAEIDAKLSTQMDEILHHPDFQALESAWRGLQLLVDRTNFRENIKIEILSVSKQDLLDDFEDSPEVMQSGLYKHIYTAEYGQFGGQPVGAIIANYYMSPSSPDVKLMQYVSSVACMAHAPFVAAAGPKFFGLESFTGLPDLKDLKDHFEGPQFAKWQSFRQSEDSRYVALTVPRFLLRTPYDPEENPVKSFAYKETVANSHEHYLWGNTAYAFGTKLTDSFAKYRWCPNIIGPQSGGAVEDLPLHHFESMGEIETKIPTEVLVSDRREYELAEEGFISLTMRKGSDNAAFFSASSVQKPKFFGISAEGKAAELNYKLGTQLPYMMIVNRLAHYLKVLQREQLGSWKERTDLELELNKWIRQYVADQENPSAEVRGRRPLRAAQIIVSDVEGEPGWYRVSLNVRPHFKYMGADFTLSLVG | not soluble
